In test [1] the test system is PC12 cells. As to the kind of experiment: Aβ levels by ELISA in Wnt1-expressing PC12 lines. In kind it is cell-based. To be noted: 12 independent Wnt1-expressing PC12 lines. The text has this: (§1) A retrovirus encoding the Wnt1 protein was introduced into PC12 cells as described in Mol. Cell. Biol. 14:466, (1995), and twelve independent Wnt1-expressing lines were established. Wnt1 expression in the lines was examined by measuring β-catenin levels.

For test [2], the system named is PC12 cells. Description: β-catenin levels in Wnt1-expressing PC12 lines. The test is classed as cell-based. Conditions: 12 independent Wnt1-expressing PC12 lines.
Excerpt: as §1

In test [3] the test system is C57MG mammary epithelial cell line. As to the kind of experiment: Aβ levels in C57MG cells infected with Wnt retrovirus. The test is classed as cell-based, mouse. Conditions: C57MG cells infected with retrovirus expressing the Wnt protein.

These results are taken from patent US6403325B1, “Methods and compounds for treating alzheimer's disease” (priority 1997, dated 2002).

B1: Wnt1: Wnt1 protein, member of the Wnt family, expressed in cells from a retrovirus encoding it (protein, UniProt P04426 28-370, looked up)
Proto-oncogene Wnt-1: ANSSGRWWGIVNIASSTNLLTDSKSLQLVLEPSLQLLSRKQRRLIRQNPGILHSVSGGLQSAVRECKWQFRNRRWNCPTAPGPHLFGKIVNRGCRETAFIFAITSAGVTHSVARSCSEGSIESCTCDYRRRGPGGPDWHWGGCSDNIDFGRLFGREFVDSGEKGRDLRFLMNLHNNEAGRTTVFSEMRQECKCHGMSGSCTVRTCWMRLPTLRAVGDVLRDRFDGASRVLYGNRGSNRASRAELLRLEPEDPAHKPPSPHDLVYFEKSPNFCTYSGRLGTAGTAGRACNSSSPALDGCELLCCGRGHRTRTQRVTERCNCTFHWCCHVSCRNCTHTRVLHECL
On to B1, for which the “levels of Aβ peptide in the cell lines” value in the test on PC12 cells [1] (ELISA) is listed as “positively correlated with Wnt1 expression”. The “Aβ levels in the culture media” value in the test on PC12 cells [1] (culture media) was “positive correlation with Wnt1 expression”. Besides, the β catenin stabilization result with PC12 cells [2] is on record as “positively correlated with the degree of β catenin stabilization”. The Aβ levels result in test [3] is “increase in Aβ levels”.

B2: Wnt5a: Wnt family member expressed in C57MG cells from a Wnt5a retrovirus (protein, UniProt P22725 62-380, looked up)
Protein Wnt-5a: IIGAQPLCSQLAGLSQGQKKLCHLYQDHMQYIGEGAKTGIKECQYQFRHRRWNCSTVDNTSVFGRVMQIGSRETAFTYAVSAAGVVNAMSRACREGELSTCGCSRAARPKDLPRDWLWGGCGDNIDYGYRFAKEFVDARERERIHAKGSYESARILMNLHNNEAGRRTVYNLADVACKCHGVSGSCSLKTCWLQLADFRKVGDALKEKYDSAAAMRLNSRGKLVQVNSRFNSPTTQDLVYIDPSPDYCVRNESTGSLGTQGRLCNKTSEGMDGCELMCCGRGYDQFKTVQTERCHCKFHWCCYVKCKKCTEIVDQFVCK
On to B2, for which, in test [3], the Aβ levels entry is “did not show increased Aβ levels”.
